These results are taken from patent US20210347848A1 (ALX ONCOLOGY, published 2021).

Substitutions are numbered along the chain they refer to.

Sequences and labels used below:
T1: mouse CD47 (mouse, UniProt Q61735 19-140, limits assumed)
T1 construct: Soluble analyte in SPR; construct not described
T1 sequence (looked up): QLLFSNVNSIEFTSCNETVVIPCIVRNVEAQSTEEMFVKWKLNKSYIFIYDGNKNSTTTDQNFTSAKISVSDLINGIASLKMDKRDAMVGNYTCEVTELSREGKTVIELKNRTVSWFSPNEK

B1: Decoy polypeptide H (Fc fusion)
chain: EEELQIIQPEKLLLVTVGKTATLHCTITSLFPVGPIQWFRGVGPGRELIYNAREGRFPRVTTVSDLTKRNNMDFSIRISSITPADVGTYYCVKFRKGSPEDVEFKSGPGTEMALGAKPSDKTHTCPPCPAPEAAGAPSVFLFPPKPKDTLMISRTPEVTCVVVDVSHEDPEVKFNWYVDGVEVHNAKTKPREEQYASTYRVVSVLTVLHQDWLNGKEYKCKVSNKALPAPIEKTISKAKGQPREPQVYTLPPSREEMTKNQVSLTCLVKGFYPSDIAVEWESNGQPENNYKTTPPVLDSDGSFFLYSKLTVDKSRWQQGNVFSCSVMHEALHNHYTQKSLSLSPG
B2: Decoy polypeptide D (Fc fusion)
chain: B1 chain with E47V, A52Q, R53K, E54D, R56H, L66G
B3: Decoy polypeptide G (Fc fusion)
chain: B1 chain with I36V, Q37L, E47V, A52Q, E54Q, R56P, L66T, S98T
B4: Decoy polypeptide B (Fc fusion)
chain: B1 chain with E47V, A52Q, E54D, R56P, L66G, S98T
B5: Decoy polypeptide J (Fc fusion)
chain: B1 chain with F31L, A52Q, E54D, R56P, L66G, S98T
B6: Decoy polypeptide C (Fc fusion)
chain: B1 chain with E47V, A52Q, R53K, E54D, R56P, L66G
B7: Decoy polypeptide F (Fc fusion)
chain: B1 chain with L30H, E47V, A52Q, R53K, E54D, R56H, L66G
B8: Decoy polypeptide L (Fc fusion)
chain: B1 chain with I6L, V33P, E47V, A52Q, R53K, E54D, R56P, L66G, S98I
B9: Decoy polypeptide A (Fc fusion)
chain: B1 chain with I36V, Q37L, E47V, A52Q, E54Q, R56P, L66T, V92I, D101N
notes: expressed in Expi293 cells
B10: Decoy polypeptide Q (Fc fusion)
chain: EEELQIIQPDKSISVAAGESATLHCTITSLFPVGPIQWFRGAGPGRVLIYNQRQGPFPRVTTVSDTTKRNNMDFSIRISNITPADAGTYYCIKFRKGSPDDVEFKSGAGTELSVRAKPSDKTHTCPPCPAPEAAGAPSVFLFPPKPKDTLMISRTPEVTCVVVDVSHEDPEVKFNWYVDGVEVHNAKTKPREEQYASTYRVVSVLTVLHQDWLNGKEYKCKVSNKALPAPIEKTISKAKGQPREPQVYTLPPSREEMTKNQVSLTCLVKGFYPSDIAVEWESNGQPENNYKTTPPVLDSDGSFFLYSKLTVDKSRWQQGNVFSCSVMHEALHNHYTQKSLSLSPG
B11: Decoy polypeptide P (Fc fusion)
chain: B10 chain with E2D, D10E, I13V, H24R, T26A, P44A, D65E, M72L, R77S
B12: Decoy polypeptide U (Fc fusion)
chain: B10 chain with I13V, S14L, S20T, H24R, V47E, Q54E, S79G, N80A, I92V
notes: positive control
B13: Decoy polypeptide E (Fc fusion)
chain: B1 chain with V42A, E47V, A52Q, E54D, R56P, L66G, V92I, S98T
B14: Decoy polypeptide N (Fc fusion)
chain: B1 chain with I6M, V42A, E47V, A52Q, E54D, R56P, L66G, V92I, S98I
B15: Decoy polypeptide I (Fc fusion)
chain: B1 chain with E47V, A52Q, R56P, L66G
B16: Decoy polypeptide K (Fc fusion)
chain: B1 chain with I27L, F31L, Q37L, E47V, A52Q, E54D, R56P, L66G, S98N
B17: Decoy polypeptide M (Fc fusion)
chain: B1 chain with V33I, Q37L, E47V, A52Q, R53K, E54D, R56P, L66G
B18: Decoy polypeptide S (Fc fusion)
chain: EDELQVIQPEKSVSVAAGESATLRCAMTSLIPVGPIMWFRGAGAGRELIYNQKEGHFPRVTTVSELTKRNNLDFSISISNITPADAGTYYCVKFRKGSPDDVEFKSGAGTELSVRAKPSDKTHTCPPCPAPEAAGAPSVFLFPPKPKDTLMISRTPEVTCVVVDVSHEDPEVKFNWYVDGVEVHNAKTKPREEQYASTYRVVSVLTVLHQDWLNGKEYKCKVSNKALPAPIEKTISKAKGQPREPQVYTLPPSREEMTKNQVSLTCLVKGFYPSDIAVEWESNGQPENNYKTTPPVLDSDGSFFLYSKLTVDKSRWQQGNVFSCSVMHEALHNHYTQKSLSLSPG
notes: also called wild type SIRPβ1
B19: Decoy polypeptide T (Fc fusion)
chain: B10 chain with I6V, I27V, F31I, V47E, R53K, Q54E, P56H, T66L, I92V, D101H
notes: also called wild type SIRPβ2

The target in the first assay is T2, human CD47 (human, UniProt Q08722 19-135).
T2 construct: Soluble analyte in SPR; also called hCD47
T2 sequence (Q08722 other isoform, or with tags, fused parts or gaps limits assumed): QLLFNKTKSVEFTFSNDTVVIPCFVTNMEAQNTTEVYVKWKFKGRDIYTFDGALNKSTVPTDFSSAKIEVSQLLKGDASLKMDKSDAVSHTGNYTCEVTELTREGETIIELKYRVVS
The experiment in a line: SPR; ratio against decoy polypeptide R (wild type SIRPγ D1 domain). The method, then: (§1) The binding affinities each decoy polypeptides for CD47 from various species (e.g., human CD47, cynomolgus monkey CD47, and mouse CD47) were determined using indirect capture via biotinylated Protein A (via NLC chip). All experiments were performed at 25° C. using a Surface Plasmon Resonance (SPR)-based ProteOn XPR36 biosensor (BioRad, Inc., Hercules, Calif.). The running buffer was PBS at pH 7.4 with 0.01% Tween-20 (PBST+). All analytes were used at their nominal concentrations as determined by A₂₈₀ absorbance and using their molar calculated extinction coefficients.
(§2) As a first step, 15 μg/mL biotinylated protein A (Thermofisher) was injected at 30 μL/min for 120 seconds over the NLC chip to obtain an immobilization response of about 1000-1200 RUs. Next, decoy polypeptides (about 100-160 nM) were injected for 80 seconds at 30 μL/min. The CD47 analytes (from human, cynomolgus monkey, and mouse) were subsequently injected in a “one-shot” kinetic mode at nominal concentrations of 100 nM, 33 nM, 11 nM, 3.7 nM, 1.2 nM, and 0 nM. Association times were monitored for 60 seconds at 25 μL/min, and dissociation times were monitored for 500 seconds. The surfaces were regenerated with a 2:1 v/v blend of Pierce IgG elution buffer/4M NaCl. Biosensor data were double-referenced by subtracting the interspot data (containing no immobilized protein) from the reaction spot data (immobilized protein) and then subtracting the response of a buffer “blank” analyte injection from that of an analyte injection. Double-referenced data were fit globally to a simple Langmuir model and the KD value was calculated from the ratio of the apparent kinetic rate constants (KD=kd/kₐ).
For orientation: In SPR one partner is held on a chip, and binding of the other changes the refractive index at the surface.
Regarding B1, the “Fold improvement in KD vs wild type” value amounted to 4530 fold.
Same read-out and setting: the same measure for B2: 1220 fold.
Still for that read-out and setting: the same measure for B3: 1400 fold; for B4: 6840 fold; for B5: 7960 fold.
Take B6: the “Fold improvement in KD vs wild type” value is 9010 fold.
Same read-out and setting: as for B7, the figure is 2490 fold; as for B8, 545 fold.

A further assay concerns the target T2, human CD47. Kind of assay: SPR, decoy captured on biotinylated Protein A, CD47 as analyte, 25 C. The method, then: as §1, §2
Consider B9, for which the Kd (commonly the free concentration of one partner at which half of the binding sites on the other are occupied at equilibrium, for simple one-to-one binding) was determined as 74.8 nM.
On the same count and under the same terms, the same measure for B1: 0.483 nM; for B2: 1.8 nM; for B3: 1.56 nM.
The same measure, in the same setting: as for B4, the figure is 0.32 nM; as for B5, 0.275 nM.
Molecule B6 yielded a Kd of 0.243 nM.
B7 gave a Kd of 0.881 nM.
On the same count and under the same terms, as for B8, the figure is 4.02 nM.
B10: the affinity, expressed as Kd, was 0.213 nM.
B11: binding was characterised by a dissociation constant (Kd) of 0.35 nM.

For another assay, the target named is T2, human CD47. Described as above. This is another data set of the same source. On the procedure:
as §1, §2
B5: the affinity, expressed as Kd, was 0.398 nM.
Still for that read-out and setting: the same measure for B6: 0.243 nM; for B10: 0.0785 nM.
B11: the dissociation constant Kd turned out to be 0.288 nM.
Same read-out and setting: the same measure for B12: 0.193 nM.

A further assay has as its target T3, cynomolgus monkey CD47 (cynomolgus monkey, UniProt A0A2K5X523 19-135).
T3 construct: Soluble analyte in SPR; construct not described; also called Cyno CD47
Described as above. On the procedure: as §1, §2
The molecule B5 returned a Kd of 0.33 nM.
On to B6, for which the Kd was found to be 0.274 nM.
The same measure, in the same setting: the same measure for B10: 0.106 nM; for B11: 0.334 nM.
In turn, B12 came in with a dissociation constant Kd of 0.224 nM.

A further assay concerns the target T1, mouse CD47. The assay is described as above. The method, then:
as §1, §2
For the molecule B5, binding was characterised by a dissociation constant (Kd) of 1.3 nM.
The same measure, in the same setting: as for B6, the figure is 0.905 nM; as for B10, 24.1 nM; as for B11, 146 nM.
Molecule B12 had an equilibrium dissociation constant (Kd) of 7.82 nM.

The target in another assay is T2, human CD47. The experiment in a line: SPR, decoy captured on biotinylated Protein A (NLC chip), CD47 as analyte. The method, then: as §1, §2
For B13, the binding result is “no binding (tested: CD47 analyte up to 100 nM)”.
On the same count and under the same terms, as for B14, the entry is “no binding (tested: CD47 analyte up to 100 nM)”; as for B15, “no binding (tested: CD47 analyte up to 100 nM)”; as for B16, “no binding (tested: CD47 analyte up to 100 nM)”.
On the same count and under the same terms, the same measure for B17: “no binding (tested: CD47 analyte up to 100 nM)”.

Another assay deals with T2, human CD47. Described as above. This is another data set of the same source.
Take B18: the binding result was “no binding (tested: CD47 analyte up to 100 nM)”.
The same measure, in the same setting: the same measure for B19: “no binding (tested: CD47 analyte up to 100 nM)”.

For another assay, the target named is T3, cynomolgus monkey CD47. The assay is described as above.
As for B18, the binding result is “no binding (tested: CD47 analyte up to 100 nM)”.
The same measure, in the same setting: the same measure for B19: “no binding (tested: CD47 analyte up to 100 nM)”.

A further assay addresses T1, mouse CD47. Described as above.
As for B18, the binding result is reported as “no binding (tested: CD47 analyte up to 100 nM)”.
Still for that read-out and setting: as for B19, the entry is “no binding (tested: CD47 analyte up to 100 nM)”.
